Source: patent publication US20150232556A1

Target: KIR3DL2CD3ε fusion protein on Jurkat reporter cells (UniProt P43630)
Experiment: cell-based or functional assay

Chain of KIR3DL2CD3ε fusion protein on Jurkat reporter cells (P43630 other isoform, or with tags, fused parts or gaps limits assumed): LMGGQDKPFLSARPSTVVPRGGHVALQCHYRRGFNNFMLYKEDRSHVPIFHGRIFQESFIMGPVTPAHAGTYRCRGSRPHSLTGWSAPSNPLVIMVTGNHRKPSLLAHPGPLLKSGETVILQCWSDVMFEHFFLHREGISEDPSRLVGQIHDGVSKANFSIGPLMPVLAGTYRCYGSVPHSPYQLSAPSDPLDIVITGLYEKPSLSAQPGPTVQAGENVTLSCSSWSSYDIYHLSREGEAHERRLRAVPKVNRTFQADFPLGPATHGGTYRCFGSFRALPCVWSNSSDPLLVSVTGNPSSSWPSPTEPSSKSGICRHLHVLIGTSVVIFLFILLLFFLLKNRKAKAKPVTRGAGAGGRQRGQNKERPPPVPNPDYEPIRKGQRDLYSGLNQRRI

IL-2 production by KIR3DL2CD3ε transduced Jurkat reporter cells (ELISA): 6 fold
Substance: HLA-B27 on transfected LCL.LBL.721.221 cells (ligand)
